Assay results taken from the Immune Epitope Database (IEDB).

Columns and labels:
Experiment in all cases: IEDB peptide-MHC binding, purified MHC/competitive/radioactivity; ≥ and ≤ were set here for values at or beyond the usual limits of such assays
HLA-A*02:03 = target: HLA-A*02:03
HLA-A*02:02 = target: HLA-A*02:02
HLA-A*68:02 = target: HLA-A*68:02
HLA-A*02:06 = target: HLA-A*02:06
HLA-A*02:01 = target: HLA-A*02:01
[1] = source organism: Vaccinia virus WR
[2] = source organism: Influenza A virus
[3] = source organism: Hepacivirus hominis

Sequence | IC50 (HLA-A*02:03; [1]) [µM] | IC50 (HLA-A*02:02; [1]) [µM] | IC50 (HLA-A*68:02; [1]) [µM] | IC50 (HLA-A*02:06; [1]) [µM] | IC50 (HLA-A*02:01; [1]) [µM] | IC50 (HLA-A*02:03; source organism: SARS-CoV1) [µM] | IC50 (HLA-A*02:02; source organism: SARS-CoV1) [µM] | IC50 (HLA-A*68:02; source organism: SARS-CoV1) [µM] | IC50 (HLA-A*02:06; source organism: SARS-CoV1) [µM] | IC50 (HLA-A*02:01; source organism: SARS-CoV1) [µM] | also measured
DLNIFMTLV | 0.556 | 1.91 | 0.192 | 2.19 | 1.12 | – | – | – | – | – | –
GLSSGFYFEI | 0.782 | 0.048 | 1.72 | 1.74 | 0.176 | – | – | – | – | – | –
FLFLAWIML | – | – | – | – | – | 0.038 | 0.0018 | 1.34 | 0.037 | 0.0064 | –
KLFTHDIML | 0.003 | 0.001 | 0.769 | 0.0047 | 0.0014 | – | – | – | – | – | –
TIDNIVTSL | 1.04 | 0.178 | 1.86 | 2.73 | 2.67 | – | – | – | – | – | –
LLWFLTGTFV | 0.0092 | 0.0024 | 0.00013 | 0.018 | 0.00032 | – | – | – | – | – | –
WLVIGVAFL | – | – | – | – | – | 0.00094 | 0.0026 | 0.127 | 0.18 | 0.035 | –
IVDTVSALV | – | – | – | – | – | 0.528 | 0.017 | 0.301 | 0.043 | 0.058 | –
SIFVSTMPV | 0.0066 | 0.037 | 0.01 | 0.082 | 0.04 | – | – | – | – | – | –
TIAHINTLI | 0.02 | 0.021 | 0.129 | 0.571 | 0.255 | – | – | – | – | – | –
NTTTFITVLT | 0.596 | 1.96 | 0.034 | 0.6 | 0.559 | – | – | – | – | – | –
CTMERTNDL | 0.025 | 0.036 | 0.103 | 0.096 | 0.345 | – | – | – | – | – | –
RMVSLVTSFL | – | – | – | – | – | 0.012 | 0.0017 | 0.0063 | 0.053 | 0.108 | –
FISSFLLPLT | 0.044 | 0.039 | 0.982 | 0.051 | 0.062 | – | – | – | – | – | –
SLTTIGTIA | 0.0037 | 0.001 | 0.323 | 0.489 | 0.133 | – | – | – | – | – | –
GALDVSASV | – | – | – | – | – | 0.0023 | 0.00072 | 0.0029 | 0.0023 | 0.0034 | –
QIMECSRML | 1.38 | 0.62 | 1.4 | 0.948 | 0.103 | – | – | – | – | – | –
SSLENFRAYV | – | – | – | – | – | – | – | – | – | – | IC50 (HLA-A*02:03; [2]): 1.14 µM; IC50 (HLA-A*02:02; [2]): 0.204 µM; IC50 (HLA-A*68:02; [2]): 0.024 µM; IC50 (HLA-A*02:06; [2]): 0.044 µM; IC50 (HLA-A*02:01; [2]): 0.172 µM

Sequence | IC50 (HLA-A*02:03; [1]) [µM] | IC50 (HLA-A*02:02; [1]) [µM] | IC50 (HLA-A*68:02; [1]) [µM] | IC50 (HLA-A*02:06; [1]) [µM] | IC50 (HLA-A*02:01; [1]) [µM] | IC50 (HLA-A*02:03; source organism: SARS-CoV1) [µM] | IC50 (HLA-A*02:02; source organism: SARS-CoV1) [µM] | IC50 (HLA-A*68:02; source organism: SARS-CoV1) [µM] | IC50 (HLA-A*02:06; source organism: SARS-CoV1) [µM] | IC50 (HLA-A*02:01; source organism: SARS-CoV1) [µM] | also measured
YIALCKVTV | 0.024 | 0.012 | 0.048 | 0.019 | 0.015 | – | – | – | – | – | –
ILRNYLRLYI | 0.0009 | 0.00039 | 2.65 | 0.065 | 0.001 | – | – | – | – | – | –
NIPELKHGLL | 2.69 | 2.3 | 0.1 | 1.23 | 2.56 | – | – | – | – | – | –
GLSDRVVFV | – | – | – | – | – | 0.0011 | 0.001 | 1.17 | 0.069 | 0.0031 | –
LLSAGIFGA | – | – | – | – | – | 0.015 | 0.012 | 0.106 | 0.025 | 0.0081 | –
YIAGLKIEEI | 0.0053 | 0.0089 | 0.669 | 0.134 | 0.0095 | – | – | – | – | – | –
IMQVFFGYFA | – | – | – | – | – | 1.57 | 0.59 | 4.5 | 0.051 | 0.29 | –
MLVCGDDLVV | – | – | – | – | – | – | – | – | – | – | IC50 (HLA-A*02:03; [3]): 0.102 µM; IC50 (HLA-A*02:02; [3]): 0.045 µM; IC50 (HLA-A*68:02; [3]): 3.06 µM; IC50 (HLA-A*02:06; [3]): 0.157 µM; IC50 (HLA-A*02:01; [3]): 0.097 µM
EMVEYLENQL | 0.209 | 0.212 | 1.65 | 0.42 | 0.485 | – | – | – | – | – | –
YNAELLVLL | – | – | – | – | – | – | – | – | – | – | IC50 (HLA-A*02:03; [2]): 1.79 µM; IC50 (HLA-A*02:02; [2]): 0.118 µM; IC50 (HLA-A*68:02; [2]): 0.044 µM; IC50 (HLA-A*02:06; [2]): 0.474 µM; IC50 (HLA-A*02:01; [2]): 0.609 µM
KIILFLTLI | – | – | – | – | – | 0.0049 | 0.068 | 0.378 | 0.024 | 0.141 | –
YLGIFKNNDV | 0.017 | 0.015 | 0.696 | 0.285 | 0.016 | – | – | – | – | – | –
ETLPELNLSL | 0.13 | 0.052 | 0.648 | 0.134 | 1.1 | – | – | – | – | – | –
NLYKVYNGI | 0.062 | 0.408 | 1.61 | 0.817 | 0.451 | – | – | – | – | – | –
NLLLLFVTI | – | – | – | – | – | 1.6 | 0.436 | 0.755 | 0.456 | 0.201 | –
VLMTHFFSVL | – | – | – | – | – | – | – | – | – | – | IC50 (HLA-A*02:03; [3]): 0.021 µM; IC50 (HLA-A*02:02; [3]): 0.062 µM; IC50 (HLA-A*68:02; [3]): 4.69 µM; IC50 (HLA-A*02:06; [3]): 0.112 µM; IC50 (HLA-A*02:01; [3]): 0.114 µM
TLLCVLAALV | – | – | – | – | – | 0.077 | 0.0046 | 4.39 | 0.065 | 0.029 | –
